The source of these data is the Immune Epitope Database (IEDB).

For experiment [1], the target named is HLA-A*03:01. Put plainly: IEDB peptide-MHC binding, purified MHC/competitive/fluorescence; filed as Kd, often an IC50 or EC50 that approximates it; ≥ and ≤ were set here for values at or beyond the usual limits of such assays.
The target in experiment [2] is HLA-B*45:01. Put plainly: IEDB peptide-MHC binding, purified MHC/competitive/radioactivity; filed as Kd, often an IC50 or EC50 that approximates it; ≥ and ≤ were set here for values at or beyond the usual limits of such assays.
Experiment [3] concerns the target HLA-B*44:03. The description is as above.
For experiment [4], the target named is HLA-B*40:02. The experiment is described as above.
Experiment [5] addresses HLA-B*44:02. The experiment is described as above.
The target in experiment [6] is HLA-B*40:01. The experiment is described as above.
Experiment [7] concerns the target HLA-B*18:01. Described as above.
In experiment [8] the target is HLA-A*02:12. Put plainly: IEDB peptide-MHC binding, purified MHC/direct/fluorescence; filed as Kd, often an IC50 or EC50 that approximates it; ≥ and ≤ were set here for values at or beyond the usual limits of such assays. The following applies: source organism: Ravn virus - Ravn, Kenya, 1987.
The target of experiment [9] is HLA-A*69:01. Described as above.
Experiment [10] addresses HLA-A*02:01. The description is as above.
Experiment [11] deals with HLA-A*24:02. Put plainly: IEDB peptide-MHC binding, purified MHC/competitive/fluorescence; ≥ and ≤ were set here for values at or beyond the usual limits of such assays.
Experiment [12] deals with HLA-A*02:01. Described as above. The following applies: source organism: Zaire ebolavirus.
Experiment [13] has as its target HLA-B*27:05. Put plainly: IEDB peptide-MHC binding, purified MHC/direct/fluorescence; filed as Kd, often an IC50 or EC50 that approximates it; ≥ and ≤ were set here for values at or beyond the usual limits of such assays. The following applies: source organism: Vibrio cholerae.
Experiment [14] concerns the target HLA-A*01:01. The experiment is described as above. The note with it: source organism: Vibrio cholerae.
Experiment [15] addresses HLA-B*07:02. Described as above. The following applies: source organism: Vibrio cholerae.
The target of experiment [16] is HLA-B*15:01. The experiment is described as above. The following applies: source organism: Vibrio cholerae.
Experiment [17] has as its target HLA-A*26:01. The experiment is described as above. The following applies: source organism: Vibrio cholerae.
Experiment [18] has as its target HLA-B*44:02. The description is as above. The note with it: source organism: Vibrio cholerae.
The target of experiment [19] is HLA-A*24:03. The experiment is described as above. The following applies: source organism: Vibrio cholerae.
The target in experiment [20] is HLA-A*03:01. Described as above. The note with it: source organism: Vibrio cholerae.
Experiment [21] deals with HLA-B*08:01. The experiment is described as above. The note with it: source organism: Vibrio cholerae.
Experiment [22] deals with HLA-A*11:01. Described as above. The following applies: source organism: Vibrio cholerae.
Experiment [23] addresses HLA-B*58:01. The description is as above. The note with it: source organism: Vibrio cholerae.
Experiment [24] concerns the target HLA-B*40:01. Described as above. The note with it: source organism: Vibrio cholerae.
In experiment [25] the target is HLA-A*31:01. The description is as above. The following applies: source organism: Vibrio cholerae.
The mark [26] stands for this setting: source organism: Mammarenavirus brazilense.
Where [27] appears, read: source organism: Mammarenavirus machupoense.
The mark [28] stands for this setting: source organism: Ebola virus - Mayinga, Zaire, 1976.
Where [29] appears, read: source organism: Zaire ebolavirus.
[30] abbreviates: source organism: SARS coronavirus Tor2.
Setting [31] is: source organism: Lassa virus Josiah.
The mark [32] stands for this setting: source organism: Vaccinia virus.
Where [33] appears, read: source organism: Vibrio cholerae.

The term Kd denotes the concentration at which binding is half-saturated. For the sequence MVAWRVTMH, in experiment [1] (source organism: Toxoplasma gondii), the Kd was determined as 0.0481 µM.

On to KEPGVSRELL, for which the equilibrium dissociation constant (Kd) in [2] (setting [26]) is ≥ 70 µM; in experiment [3] (setting [26]), ≥ 70.1 µM; in [4] (setting [26]), 1.06 µM; in [5] (setting [26]) it was ≥ 70.2 µM; in experiment [6] (setting [26]), 1.32 µM; in [7] (setting [26]) it was ≥ 70.4 µM.

YEQQTVNST: the Kd in [2] (setting [26]) was 1.21 µM; in [3] (setting [26]), ≥ 78.1 µM; in experiment [4] (setting [26]) it was 0.0783 µM; in experiment [5] (setting [26]), ≥ 34.1 µM; in experiment [6] (setting [26]), ≥ 54.2 µM; in experiment [7] (setting [26]), 1.13 µM.

As to EEVLDVCPLG, the Kd in experiment [2] (setting [27]) is 4.44 µM; in experiment [3] (setting [27]), ≥ 51.1 µM; in [4] (setting [27]) it was 9.75 µM; in experiment [5] (setting [27]), ≥ 70.2 µM; in [6] (setting [27]), 14.2 µM; in experiment [7] (setting [27]), 4.84 µM.

For the sequence IISDLSIFI, the Kd came to 0.069 µM in experiment [8], 0.0323 µM in experiment [9] (setting [28]) and 0.003 µM in experiment [10] (setting [28]).

As a reminder, the IC50 is the point on the concentration scale where inhibition reaches its midpoint. Lower therefore signals higher potency. Take VYKLDISEA: the IC50 in [11] (setting [29]) amounted to 44 µM.

For the sequence PEANMDQESF, the Kd is ≥ 26 µM in [2] (setting [30]); 10.6 µM in experiment [3] (setting [30]); 10.1 µM in experiment [4] (setting [30]); 7.54 µM in [5] (setting [30]); 4.2 µM in experiment [6] (setting [30]); ≥ 53.2 µM in experiment [7] (setting [30]).

As to REPTDLKQF, the Kd in experiment [2] (setting [31]) was ≥ 77.7 µM; in [3] (setting [31]), 8.46 µM; in experiment [4] (setting [31]), 1 µM; in [5] (setting [31]), 1.51 µM; in experiment [6] (setting [31]) it was 2.88 µM; in experiment [7] (setting [31]), ≥ 55.4 µM.

For YEAMYTPHT, the Kd is 0.149 µM in [2] (setting [30]); 13 µM in [3] (setting [30]); 0.242 µM in experiment [4] (setting [30]); ≥ 21.8 µM in [5] (setting [30]); 14.4 µM in experiment [6] (setting [30]); 2.8 µM in experiment [7] (setting [30]).

Regarding KVYTMDGEY, in [1] (source organism: West Nile virus), the dissociation constant Kd came out at 0.0376 µM.

On to KQLQQYAES, for which the IC50 was 20.8 µM in experiment [11] (setting [29]) and ≥ 187 µM in experiment [12].

For SYRNKPSIA, the IC50 in experiment [11] (setting [32]) came out at 43.8 µM.

For KYNTPCPNC, the IC50 in experiment [11] (setting [32]) worked out at 35.5 µM.

On to TLATISTSP, for which the figures for the IC50 in experiment [11] (setting [29]) and in experiment [12] were ≥ 88.9 µM and 29.7 µM, respectively.

KISGSFSPH: the Kd in experiment [1] (source organism: Cryptosporidium parvum Iowa II) is 0.0369 µM.

For the sequence RYDYANLCQ, the dissociation constant (Kd) in experiment [13], in experiment [14], in experiment [15], in experiment [16], in experiment [9] (setting [33]) and in experiment [17] was ≥ 20 µM in each case. Besides, the dissociation constant Kd in [18], in experiment [19], in experiment [20], in experiment [21], in experiment [22] and in experiment [23] was ≥ 20 µM each time. The dissociation constant Kd in experiment [10] (setting [33]), in experiment [24] and in experiment [25] was ≥ 20 µM in each case.

In experiment [1] (source organism: Francisella tularensis subsp. tularensis FSC198), RLSVKTFVK returned an equilibrium dissociation constant (Kd) of 0.0253 µM.

Regarding TLYDRYLIK, the dissociation constant (Kd) in [1] (source organism: Campylobacter lari RM2100) stood at 0.0109 µM.
